Laboratory results as given in the supplement of paper PMC9112550, “Optimization of the antimicrobial peptide Bac7 by deep mutational scanning” (BMC Biology, 2022).

Tested on: Escherichia coli TOP10
Experiment: shrunken log2 fold change of peptide-encoding DNA abundance (4.5 h post-induction vs induction); higher = less antimicrobial activity (less host growth inhibition)
Details: time post-induction: 4.5 h; library: site-saturation at positions 5, 18, 19, 20
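Further: peptides expressed intracellularly from a pBAD plasmid library in pooled LB shake-flask culture, induced with 0.3% L-arabinose, DNA abundance read by NGS, three biological replicates, DESeq2 with apeglm shrinkage.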

First: RRIRERPPRLPRPRPRPTFLPRP
Second: RRIRWRPPRLPRPRPRPLEPPRP
The “shrunken log2 fold change” value of the first is lower: -0.724 for the first, 0.676 for the second.

Going from RRIRFRPPRLPRPRPRPIFFPRP to RRIRMRPPRLPRPRPRPWVVPRP, the “shrunken log2 fold change” value rises from -0.137 to 0.346.

RRIRIRPPRLPRPRPRPHVEPRP and RRIRLRPPRLPRPRPRPGYHPRP are within 0.2 log units of each other in “shrunken log2 fold change” value: -0.227 for the first, -0.421 for the second.

First: RRIRHRPPRLPRPRPRPTKCPRP
Second: RRIRWRPPRLPRPRPRPYQHPRP
The “shrunken log2 fold change” value of the first is higher: -0.0314 for the first, -0.692 for the second.

Going from RRIRRRPPRLPRPRPRPAFYPRP to RRIRMRPPRLPRPRPRPRTRPRP, the “shrunken log2 fold change” value rises from 0.654 to 1.09.

Compared with RRIRPRPPRLPRPRPRPKHHPRP, RRIRMRPPRLPRPRPRPGMNPRP is higher in “shrunken log2 fold change” value: -0.228 for the first, -0.00589 for the second.

Going from RRIRFRPPRLPRPRPRPRKLPRP to RRIRGRPPRLPRPRPRPEKVPRP, the “shrunken log2 fold change” value rises from 0.134 to 0.417.

RRIRARPPRLPRPRPRPHSPPRP and RRIRWRPPRLPRPRPRPSKCPRP are within 0.2 log units of each other in “shrunken log2 fold change” value: 0.122 for the first, -0.00209 for the second.

Going from RRIRERPPRLPRPRPRPDKHPRP to RRIRDRPPRLPRPRPRPQLQPRP, the “shrunken log2 fold change” value falls from 0.236 to -0.16.

RRIRIRPPRLPRPRPRPAAEPRP and RRIRERPPRLPRPRPRPTHKPRP are within 0.2 log units of each other in “shrunken log2 fold change” value: 0.197 for the first, 0.0682 for the second.

First: RRIRNRPPRLPRPRPRPNKVPRP
Second: RRIRQRPPRLPRPRPRPCNYPRP
The “shrunken log2 fold change” value of the first is lower: -0.642 for the first, 0.00177 for the second.

First: RRIRFRPPRLPRPRPRPWNAPRP
Second: RRIRHRPPRLPRPRPRPFDNPRP
The “shrunken log2 fold change” value of the first is lower: -0.84 for the first, -0.0137 for the second.

RRIRKRPPRLPRPRPRPPSRPRP and RRIRCRPPRLPRPRPRPEPEPRP are within 0.2 log units of each other in “shrunken log2 fold change” value: 0.772 for the first, 0.706 for the second.

Compared with RRIRVRPPRLPRPRPRPIIPPRP, RRIRRRPPRLPRPRPRPATFPRP is higher in “shrunken log2 fold change” value: -0.36 for the first, 0.0785 for the second.

Going from RRIRTRPPRLPRPRPRPIHRPRP to RRIRHRPPRLPRPRPRPLHCPRP, the “shrunken log2 fold change” value falls from -0.00127 to -0.519.

RRIRWRPPRLPRPRPRPYKTPRP and RRIRVRPPRLPRPRPRPWENPRP are within 0.2 log units of each other in “shrunken log2 fold change” value: -0.0554 for the first, -0.0208 for the second.

RRIRDRPPRLPRPRPRPTNQPRP and RRIRVRPPRLPRPRPRPVCSPRP are within 0.2 log units of each other in “shrunken log2 fold change” value: -0.00895 for the first, -0.11 for the second.

Going from RRIRIRPPRLPRPRPRPRQMPRP to RRIRMRPPRLPRPRPRPEWTPRP, the “shrunken log2 fold change” value rises from 0.0961 to 0.749.

First: RRIRYRPPRLPRPRPRPGAKPRP
Second: RRIRLRPPRLPRPRPRPYNRPRP
The “shrunken log2 fold change” value of the first is higher: 0.379 for the first, -0.113 for the second.

First: RRIRVRPPRLPRPRPRPGRAPRP
Second: RRIRCRPPRLPRPRPRPATKPRP
The “shrunken log2 fold change” value of the first is higher: 0.685 for the first, 0.0383 for the second.

First: RRIRLRPPRLPRPRPRPPGVPRP
Second: RRIRSRPPRLPRPRPRPDDCPRP
The “shrunken log2 fold change” value of the first is higher: 0.426 for the first, -0.0201 for the second.

RRIRHRPPRLPRPRPRPNRGPRP and RRIRHRPPRLPRPRPRPPLYPRP are within 0.2 log units of each other in “shrunken log2 fold change” value: -0.123 for the first, -0.151 for the second.

RRIRPRPPRLPRPRPRPAKVPRP and RRIRDRPPRLPRPRPRPSLVPRP are within 0.2 log units of each other in “shrunken log2 fold change” value: 0.045 for the first, -0.0908 for the second.

Compared with RRIRCRPPRLPRPRPRPTTLPRP, RRIRCRPPRLPRPRPRPVQPPRP is higher in “shrunken log2 fold change” value: -0.219 for the first, 0.455 for the second.

RRIRQRPPRLPRPRPRPDRNPRP and RRIRRRPPRLPRPRPRPDQCPRP are within 0.2 log units of each other in “shrunken log2 fold change” value: -0.176 for the first, -0.00402 for the second.

RRIRHRPPRLPRPRPRPRCTPRP and RRIRKRPPRLPRPRPRPVEMPRP are within 0.2 log units of each other in “shrunken log2 fold change” value: 0.0847 for the first, 0.126 for the second.

RRIRHRPPRLPRPRPRPKKIPRP and RRIRERPPRLPRPRPRPDCDPRP are within 0.2 log units of each other in “shrunken log2 fold change” value: -0.129 for the first, -0.121 for the second.

RRIRIRPPRLPRPRPRPESNPRP and RRIRMRPPRLPRPRPRPNWKPRP are within 0.2 log units of each other in “shrunken log2 fold change” value: 0.0344 for the first, -0.0351 for the second.

RRIRKRPPRLPRPRPRPHVEPRP and RRIRSRPPRLPRPRPRPISSPRP are within 0.2 log units of each other in “shrunken log2 fold change” value: -0.0479 for the first, -0.0591 for the second.

Compared with RRIRARPPRLPRPRPRPWRVPRP, RRIRCRPPRLPRPRPRPFIMPRP is lower in “shrunken log2 fold change” value: 0.12 for the first, -0.765 for the second.

RRIRPRPPRLPRPRPRPCFPPRP and RRIRKRPPRLPRPRPRPVKPPRP are within 0.2 log units of each other in “shrunken log2 fold change” value: -0.0413 for the first, 0.0508 for the second.

Going from RRIRFRPPRLPRPRPRPPTAPRP to RRIRSRPPRLPRPRPRPYDWPRP, the “shrunken log2 fold change” value falls from 0.429 to -0.102.

RRIRIRPPRLPRPRPRPMKEPRP and RRIRSRPPRLPRPRPRPNMVPRP are within 0.2 log units of each other in “shrunken log2 fold change” value: 0.116 for the first, -0.0658 for the second.

RRIRPRPPRLPRPRPRPSQYPRP and RRIRHRPPRLPRPRPRPNISPRP are within 0.2 log units of each other in “shrunken log2 fold change” value: -0.415 for the first, -0.319 for the second.

First: RRIRCRPPRLPRPRPRPKMFPRP
Second: RRIRGRPPRLPRPRPRPVNVPRP
The “shrunken log2 fold change” value of the first is lower: -0.265 for the first, 0.0488 for the second.

Going from RRIRTRPPRLPRPRPRPRSCPRP to RRIRDRPPRLPRPRPRPNHEPRP, the “shrunken log2 fold change” value falls from 0.423 to -0.0728.

RRIRHRPPRLPRPRPRPMTKPRP and RRIRMRPPRLPRPRPRPVVSPRP are within 0.2 log units of each other in “shrunken log2 fold change” value: 0.0576 for the first, 0.095 for the second.

With RRIRMRPPRLPRPRPRPRIWPRP the “shrunken log2 fold change” value was 0.726.
